*1 amine or outer side, *2 acyl side, *3 side chain or, on linkers, in order; H or OH if unused. Side-chain parts run from the residue outwards. The star is where a group is joined. C18 diacid = O=C(O)CCCCCCCCCCCCCCCCC(=O)*; γGlu = O=C(O)[C@H](CCC(=O)[*:2])N[*:1]; Isovaleryl = CC(C)CC(=O)*; AEEA = NCCOCCOCC(=O)O
T1: human neuropeptide Y2 receptor (human, UniProt P49146 1-381)
T1 construct: whole, on cells; also called hNPY2 receptor; hNPY2-R
T1 sequence (looked up): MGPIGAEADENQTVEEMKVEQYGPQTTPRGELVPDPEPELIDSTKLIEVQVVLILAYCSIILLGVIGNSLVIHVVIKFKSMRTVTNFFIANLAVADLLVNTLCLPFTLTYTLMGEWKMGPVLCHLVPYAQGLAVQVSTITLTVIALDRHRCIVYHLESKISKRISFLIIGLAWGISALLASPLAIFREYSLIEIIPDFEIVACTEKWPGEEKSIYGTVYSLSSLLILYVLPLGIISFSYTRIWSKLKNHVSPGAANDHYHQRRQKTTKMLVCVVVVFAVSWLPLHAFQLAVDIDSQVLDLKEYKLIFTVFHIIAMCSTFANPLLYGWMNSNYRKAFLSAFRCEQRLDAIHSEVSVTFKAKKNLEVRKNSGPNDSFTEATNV


Biological target: T1, human neuropeptide Y2 receptor
Assay: radioligand competition (125I-PYY(1-36)), hNPY2R membranes
In short: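 Commercial human Y2 receptor membranes (0.5 μg protein/well) were incubated with peptide for 2 h at room temperature in 50 mM HEPES, 5 mM MgCl₂, 1 mM CaCl₂, pH 7.4, with 0.2% ovalbumin. Bound radioligand was separated on PEI-soaked GF/C filters and counted by scintillation, and IC₅₀ came from nonlinear sigmoidal regression.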

Row | Binder | Ki
1 | Isovaleryl-APEK([AEEA-AEEA-γGlu-C18 diacid])PEEEASPEALQRYYVSLRHYYNWLTRQRY-NH2 (SMILES CC(C)CC(=O)N[C@@H](C)C(=O)N1CCC[C@H]1C(=O)N[C@@H](CCC(=O)O)C(=O)N[C@@H](CCCCNC(=O)COCCOCCNC(=O)COCCOCCNC(=O)CC[C@H](NC(=O)CCCCCCCCCCCCCCCCC(=O)O)C(=O)O)C(=O)N1CCC[C@H]1C(=O)N[C@@H](CCC(=O)O)C(=O)N[C@@H](CCC(=O)O)C(=O)N[C@@H](CCC(=O)O)C(=O)N[C@@H](C)C(=O)N[C@@H](CO)C(=O)N1CCC[C@H]1C(=O)N[C@@H](CCC(=O)O)C(=O)N[C@@H](C)C(=O)N[C@@H](CC(C)C)C(=O)N[C@@H](CCC(N)=O)C(=O)N[C@@H](CCCNC(=N)N)C(=O)N[C@@H](Cc1ccc(O)cc1)C(=O)N[C@@H](Cc1ccc(O)cc1)C(=O)N[C@H](C(=O)N[C@@H](CO)C(=O)N[C@@H](CC(C)C)C(=O)N[C@@H](CCCNC(=N)N)C(=O)N[C@@H](Cc1c[nH]cn1)C(=O)N[C@@H](Cc1ccc(O)cc1)C(=O)N[C@@H](Cc1ccc(O)cc1)C(=O)N[C@@H](CC(N)=O)C(=O)N[C@@H](Cc1c[nH]c2ccccc12)C(=O)N[C@@H](CC(C)C)C(=O)N[C@H](C(=O)N[C@@H](CCCNC(=N)N)C(=O)N[C@@H](CCC(N)=O)C(=O)N[C@@H](CCCNC(=N)N)C(=O)N[C@@H](Cc1ccc(O)cc1)C(N)=O)[C@@H](C)O)C(C)C) [Compound 115] | 1.94 nM
2 | Isovaleryl-APEK([AEEA-AEEA-γGlu-C18 diacid])PEEDAAPEELQRYYVSLRHYYNWLTRQRY-NH2 (SMILES CC(C)CC(=O)N[C@@H](C)C(=O)N1CCC[C@H]1C(=O)N[C@@H](CCC(=O)O)C(=O)N[C@@H](CCCCNC(=O)COCCOCCNC(=O)COCCOCCNC(=O)CC[C@H](NC(=O)CCCCCCCCCCCCCCCCC(=O)O)C(=O)O)C(=O)N1CCC[C@H]1C(=O)N[C@@H](CCC(=O)O)C(=O)N[C@@H](CCC(=O)O)C(=O)N[C@@H](CC(=O)O)C(=O)N[C@@H](C)C(=O)N[C@@H](C)C(=O)N1CCC[C@H]1C(=O)N[C@@H](CCC(=O)O)C(=O)N[C@@H](CCC(=O)O)C(=O)N[C@@H](CC(C)C)C(=O)N[C@@H](CCC(N)=O)C(=O)N[C@@H](CCCNC(=N)N)C(=O)N[C@@H](Cc1ccc(O)cc1)C(=O)N[C@@H](Cc1ccc(O)cc1)C(=O)N[C@H](C(=O)N[C@@H](CO)C(=O)N[C@@H](CC(C)C)C(=O)N[C@@H](CCCNC(=N)N)C(=O)N[C@@H](Cc1c[nH]cn1)C(=O)N[C@@H](Cc1ccc(O)cc1)C(=O)N[C@@H](Cc1ccc(O)cc1)C(=O)N[C@@H](CC(N)=O)C(=O)N[C@@H](Cc1c[nH]c2ccccc12)C(=O)N[C@@H](CC(C)C)C(=O)N[C@H](C(=O)N[C@@H](CCCNC(=N)N)C(=O)N[C@@H](CCC(N)=O)C(=O)N[C@@H](CCCNC(=N)N)C(=O)N[C@@H](Cc1ccc(O)cc1)C(N)=O)[C@@H](C)O)C(C)C) [Compound 122] | 1.84 nM

Next, values leading:

Row | Ki | Binder
3 | 0.5 nM | Isovaleryl-APEK([AEEA-AEEA-γGlu-C18 diacid])PEEDAAPEEIQRYYVSLRHYYNWLTRQRY-NH2 (SMILES CC[C@H](C)[C@H](NC(=O)[C@H](CCC(=O)O)NC(=O)[C@H](CCC(=O)O)NC(=O)[C@@H]1CCCN1C(=O)[C@H](C)NC(=O)[C@H](C)NC(=O)[C@H](CC(=O)O)NC(=O)[C@H](CCC(=O)O)NC(=O)[C@H](CCC(=O)O)NC(=O)[C@@H]1CCCN1C(=O)[C@H](CCCCNC(=O)COCCOCCNC(=O)COCCOCCNC(=O)CC[C@H](NC(=O)CCCCCCCCCCCCCCCCC(=O)O)C(=O)O)NC(=O)[C@H](CCC(=O)O)NC(=O)[C@@H]1CCCN1C(=O)[C@H](C)NC(=O)CC(C)C)C(=O)N[C@@H](CCC(N)=O)C(=O)N[C@@H](CCCNC(=N)N)C(=O)N[C@@H](Cc1ccc(O)cc1)C(=O)N[C@@H](Cc1ccc(O)cc1)C(=O)N[C@H](C(=O)N[C@@H](CO)C(=O)N[C@@H](CC(C)C)C(=O)N[C@@H](CCCNC(=N)N)C(=O)N[C@@H](Cc1c[nH]cn1)C(=O)N[C@@H](Cc1ccc(O)cc1)C(=O)N[C@@H](Cc1ccc(O)cc1)C(=O)N[C@@H](CC(N)=O)C(=O)N[C@@H](Cc1c[nH]c2ccccc12)C(=O)N[C@@H](CC(C)C)C(=O)N[C@H](C(=O)N[C@@H](CCCNC(=N)N)C(=O)N[C@@H](CCC(N)=O)C(=O)N[C@@H](CCCNC(=N)N)C(=O)N[C@@H](Cc1ccc(O)cc1)C(N)=O)[C@@H](C)O)C(C)C) [Compound 124]
4 | 0.61 nM | Isovaleryl-APAK([AEEA-AEEA-γGlu-C18 diacid])PEADASPEELQRYYVSLRHYYNWLTRQRY-NH2 (SMILES CC(C)CC(=O)N[C@@H](C)C(=O)N1CCC[C@H]1C(=O)N[C@@H](C)C(=O)N[C@@H](CCCCNC(=O)COCCOCCNC(=O)COCCOCCNC(=O)CC[C@H](NC(=O)CCCCCCCCCCCCCCCCC(=O)O)C(=O)O)C(=O)N1CCC[C@H]1C(=O)N[C@@H](CCC(=O)O)C(=O)N[C@@H](C)C(=O)N[C@@H](CC(=O)O)C(=O)N[C@@H](C)C(=O)N[C@@H](CO)C(=O)N1CCC[C@H]1C(=O)N[C@@H](CCC(=O)O)C(=O)N[C@@H](CCC(=O)O)C(=O)N[C@@H](CC(C)C)C(=O)N[C@@H](CCC(N)=O)C(=O)N[C@@H](CCCNC(=N)N)C(=O)N[C@@H](Cc1ccc(O)cc1)C(=O)N[C@@H](Cc1ccc(O)cc1)C(=O)N[C@H](C(=O)N[C@@H](CO)C(=O)N[C@@H](CC(C)C)C(=O)N[C@@H](CCCNC(=N)N)C(=O)N[C@@H](Cc1c[nH]cn1)C(=O)N[C@@H](Cc1ccc(O)cc1)C(=O)N[C@@H](Cc1ccc(O)cc1)C(=O)N[C@@H](CC(N)=O)C(=O)N[C@@H](Cc1c[nH]c2ccccc12)C(=O)N[C@@H](CC(C)C)C(=O)N[C@H](C(=O)N[C@@H](CCCNC(=N)N)C(=O)N[C@@H](CCC(N)=O)C(=O)N[C@@H](CCCNC(=N)N)C(=O)N[C@@H](Cc1ccc(O)cc1)C(N)=O)[C@@H](C)O)C(C)C) [Compound 121]
5 | 3.32 nM | Isovaleryl-APEK([AEEA-AEEA-γGlu-C18 diacid])PEEEASPEELQRYYVTLRHYYNWLTRQRY-NH2 (SMILES CC(C)CC(=O)N[C@@H](C)C(=O)N1CCC[C@H]1C(=O)N[C@@H](CCC(=O)O)C(=O)N[C@@H](CCCCNC(=O)COCCOCCNC(=O)COCCOCCNC(=O)CC[C@H](NC(=O)CCCCCCCCCCCCCCCCC(=O)O)C(=O)O)C(=O)N1CCC[C@H]1C(=O)N[C@@H](CCC(=O)O)C(=O)N[C@@H](CCC(=O)O)C(=O)N[C@@H](CCC(=O)O)C(=O)N[C@@H](C)C(=O)N[C@@H](CO)C(=O)N1CCC[C@H]1C(=O)N[C@@H](CCC(=O)O)C(=O)N[C@@H](CCC(=O)O)C(=O)N[C@@H](CC(C)C)C(=O)N[C@@H](CCC(N)=O)C(=O)N[C@@H](CCCNC(=N)N)C(=O)N[C@@H](Cc1ccc(O)cc1)C(=O)N[C@@H](Cc1ccc(O)cc1)C(=O)N[C@H](C(=O)N[C@H](C(=O)N[C@@H](CC(C)C)C(=O)N[C@@H](CCCNC(=N)N)C(=O)N[C@@H](Cc1c[nH]cn1)C(=O)N[C@@H](Cc1ccc(O)cc1)C(=O)N[C@@H](Cc1ccc(O)cc1)C(=O)N[C@@H](CC(N)=O)C(=O)N[C@@H](Cc1c[nH]c2ccccc12)C(=O)N[C@@H](CC(C)C)C(=O)N[C@H](C(=O)N[C@@H](CCCNC(=N)N)C(=O)N[C@@H](CCC(N)=O)C(=O)N[C@@H](CCCNC(=N)N)C(=O)N[C@@H](Cc1ccc(O)cc1)C(N)=O)[C@@H](C)O)[C@@H](C)O)C(C)C) [Compound 119]
